# According to patent US20260055369A1, “METHOD FOR GENERATING CELLS OF THE T CELL LINEAGE WITH ENGINEERING BROADLY REACTIVE HUMAN NOTCH LIGAND” (H. Lee Moffitt Cancer Center and Research Institute, Inc., priority 2022, published 2026):
# B1: Delta^MAX: engineered human DLL4 consensus variant with 10 mutations combining DLL4.v1 and DLL4.v2 mutations; sequence matches SEQ ID NO: 4/10 (protein)
# chain: SSVFQLQLQEFINERGVLASGRPCEPGCRTFFRVCLKHFQAVVSPGPCTFGTVSTPVLGTNSFAVRDDSSGGGRNPLQLPLNFTWPGTFSLIIEAWHAPGDDLRPEALPPDALISKFAIQGSLAVGQNWLLDEQTSTLTRLRYSYRVICSDNYYGDNCSRLCKKRNDYFGHYVCQPDGNPSCLPGWTGEYCQQPICLSGCHEQNGYCSKPAECLCRPGWQGRLCNECIPHPGCRHGTCSTPWQCLCDEGWGGLYCDQDLNYCTHHSPCKNGATCRNSGPRSYTCTCRPGYTGVDCELELSECDSNPCRNGGSCKDQEDGYHCLCPPGYYGLHCEHSTLSCADSPCFNGGSCRERNQGANYACECPPNFTGSNCE
# Experiments:
# [1] = test system: hNotch1; assay: Notch signaling assay using multiple ligand-presentation formats (U2OS hNotch1-Gal4 luciferase); assay type: cell-based, human
# Protocol: Notch activation was assayed in different formats (FIG. 14A) including (1) non-specific orientation (0.1 ng/mm^2 of Delta^MAX on well, FIG. 3A), (2) ligand-oriented coupling (10 nM of Delta^MAX on well, FIG. 3B), (3) magnetic beads coated with biotinylated Delta^MAX (ratio 1:20 reporter cells:beads, optimization of ratio is detailed in FIG. 14D), (4) HEK293T-expressing Delta^MAX (ratio 1:1, signal receivers:senders, optimization of ratio can be seen in FIG. 14C), and (5) yeast-expressing Delta^MAX (ratio 1:10, reporter:yeast, optimization of ratio is detailed in FIG. 14B). On day one, U2OS hNotch1-Gal4 cells were detached with trypsin-EDTA, counted in the microscope, and 5×10E5 cells/well transferred to 6-well tissue culture plates (Falcon). On day two, U2OS cells were transfected as described above. On day three, the different activation assays were set up at the same time. For ligand oriented-coupling, streptavidin plates were coated with 10 nM of Delta^MAX as described above. For non-specific adsorption, non-biotinylated Delta^MAX at 0.1 ng/mm was coated as described previously. For activation using streptavidin beads coated with biotinylated Delta^MAX, 200 mg of streptavidin beads (streptavidin MagneSphere paramagnetic particles, Promega) were washed 3 times with 200 μL of DPBS+0.1% BSA using a magnet (Miltenyi), and combined with 20 μg of biotinylated Delta^MAX for 1.5 hours at 4° C. Next, unbound Delta^MAX was washed out three times with 200 μL of DPBS+0.1% BSA, and 100 μL of complexed beads (pre-diluted 1/25 in DPBS) were added to wells. For co-culture activation with HEK293T-expressing Delta^MAX, cells were detached with trypsin-EDTA, quenched with DMEM media, washed with DPBS, and 100 μL containing 20,000 cells in DMEM were added to wells. For activation with yeast cells expressing Delta^MAX on surface, pYAL vector encoding for Delta^MAX (N-EGF5) was electroporated previously into yeast cells, and DLL4 expressed in SGCAA as previously described. Delta^MAX expression was induced 48 hours before Notch activation assay set up. One hundred microliters of yeast cells (2×10E6 cells/mL) in serum-free DMEM were added to the assay plate. Once all the wells contained the desired activation assays, U2OS reporter cells were detached with trypsin-EDTA, and 20,000 cells in 100 μL of DMEM were added per well. All the conditions were supplemented with 2 μg/mL of doxycycline to induce Notch1-Gal4 expression. The assay plate was incubated for 24 hours at 37° C. and 5% CO2. On day four, media was aspirated off and Luciferase Dual-Glo kit (Promega) used to detect firefly and Renilla signals in a luminometer (GloMax, Promega). Negative controls were BSA 0.5% for non-specific adsorption, streptavidin and BSA 2% for ligand oriented-coupling, uncoated streptavidin beads for activation with magnetic beads, HEK293T non-expressing DLL4 for co-culture activation, and yeast expressing PDL-1 ECD for co-culture with yeast. The expression of Delta^MAX in HEK293T and yeast cells was confirmed by flow cytometry (BD Accuri C6 plus) following staining for 1 hour at 4° C. with anti-hDLL4 PE antibody using DPBS+0.5% BSA, and selection buffer, respectively (FIG. 14E). Notch activation is represented as the mean fold-change over the corresponding control±s.d. of three independent biological replicates.
# [2] = test system: Notch1; assay: Kinetics for Notch activation assay (time course, CHO-K1 N1-Gal4); assay type: cell-based; conditions: immobilized at 50 nM; most pronounced in first 4 to 8 hours
# Protocol: 96-well tissue culture plates (Coastar) were pre-coated using ligand-oriented coupling as described above with 50 nM of DLL4 biotinylated variants. CHO-K1 N1-Gal4 reporter cells were detached with trypsin-EDTA, washed with DPBS, and 200 μL of α-MEM media containing 30,000 cells were added into wells. Notch activation was analyzed as end-points for 0, 4, 8, 12, 16, 20, and 24-hour measurements. Desired time point wells containing CHO-K1 N1-Gal4 reporter cells were washed once with 200 μL DPBS, detached with trypsin-EDTA, and quenched with 200 μL of α-MEM media. Next, reporter cells were resuspended and analyzed by flow cytometry reading the fluorescence of H2B-mCitrine (BD Accuri C6 Plus). Every time point represents the mean fluorescence intensity of Notch activation as percentage+s.d. of three independent biological replicates. Notch activation was reference-subtracted from a well containing streptavidin, BSA and CHO-K1 N1-Gal4 cells.
# Target sequence in this assay (P46531 295-488 limits assumed): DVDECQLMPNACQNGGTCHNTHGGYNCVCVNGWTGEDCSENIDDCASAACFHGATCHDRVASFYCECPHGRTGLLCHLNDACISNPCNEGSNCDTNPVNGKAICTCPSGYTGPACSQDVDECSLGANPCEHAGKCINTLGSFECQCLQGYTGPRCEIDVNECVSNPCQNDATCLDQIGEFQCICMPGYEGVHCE
# [3] = test system: Notch1; assay: Notch inhibition assay in co-culture format (CHO-K1 N1-Gal4 with HEK293T expressing WT DLL4); assay type: cell-based; conditions: co-culture 1:1 with HEK293T expressing WT DLL4; read-out: IC50 for inhibition of Notch1 activation by cellular DLL4
# Protocol: For inhibition of CHO-K1 N1-Gal4 cells with DAPT and Delta^MAX, the experiment was set-up following the protocol described above with the exception that CHO-K1 N1-Gal4 reporters were incubated with HEK293T-expressing WT DLL4 for Notch activation. Three-fold serial dilutions of soluble Delta^MAX and DAPT were prepared in DPBS starting at 6,000 nM. For DAPT, a stock solution of 100 μM in 8% DMSO was prepared before serial dilutions in DPBS. Appropriate DMSO controls were also assayed for cytotoxicity. Final DMSO concentration in the wells was maintained below 1%. Thirty thousand signal senders and pre-blocked signal receivers (100 μL each) were incubated for 24 hours at 37° C. and 5% CO2 before analysis by flow cytometry. Maximum Notch activation (100%) was set in the absence of soluble inhibitors and normalized to wells containing CHO-K1 N1-Gal4 cells and HEK293T lacking expression of WT DLL4. Mean fluorescence intensity is represented as percentage relative to Notch activation in the absence of inhibitors±s.d. of three independent biological replicates.
# Sequence of hNotch1 (P46531 19-1664 limits assumed): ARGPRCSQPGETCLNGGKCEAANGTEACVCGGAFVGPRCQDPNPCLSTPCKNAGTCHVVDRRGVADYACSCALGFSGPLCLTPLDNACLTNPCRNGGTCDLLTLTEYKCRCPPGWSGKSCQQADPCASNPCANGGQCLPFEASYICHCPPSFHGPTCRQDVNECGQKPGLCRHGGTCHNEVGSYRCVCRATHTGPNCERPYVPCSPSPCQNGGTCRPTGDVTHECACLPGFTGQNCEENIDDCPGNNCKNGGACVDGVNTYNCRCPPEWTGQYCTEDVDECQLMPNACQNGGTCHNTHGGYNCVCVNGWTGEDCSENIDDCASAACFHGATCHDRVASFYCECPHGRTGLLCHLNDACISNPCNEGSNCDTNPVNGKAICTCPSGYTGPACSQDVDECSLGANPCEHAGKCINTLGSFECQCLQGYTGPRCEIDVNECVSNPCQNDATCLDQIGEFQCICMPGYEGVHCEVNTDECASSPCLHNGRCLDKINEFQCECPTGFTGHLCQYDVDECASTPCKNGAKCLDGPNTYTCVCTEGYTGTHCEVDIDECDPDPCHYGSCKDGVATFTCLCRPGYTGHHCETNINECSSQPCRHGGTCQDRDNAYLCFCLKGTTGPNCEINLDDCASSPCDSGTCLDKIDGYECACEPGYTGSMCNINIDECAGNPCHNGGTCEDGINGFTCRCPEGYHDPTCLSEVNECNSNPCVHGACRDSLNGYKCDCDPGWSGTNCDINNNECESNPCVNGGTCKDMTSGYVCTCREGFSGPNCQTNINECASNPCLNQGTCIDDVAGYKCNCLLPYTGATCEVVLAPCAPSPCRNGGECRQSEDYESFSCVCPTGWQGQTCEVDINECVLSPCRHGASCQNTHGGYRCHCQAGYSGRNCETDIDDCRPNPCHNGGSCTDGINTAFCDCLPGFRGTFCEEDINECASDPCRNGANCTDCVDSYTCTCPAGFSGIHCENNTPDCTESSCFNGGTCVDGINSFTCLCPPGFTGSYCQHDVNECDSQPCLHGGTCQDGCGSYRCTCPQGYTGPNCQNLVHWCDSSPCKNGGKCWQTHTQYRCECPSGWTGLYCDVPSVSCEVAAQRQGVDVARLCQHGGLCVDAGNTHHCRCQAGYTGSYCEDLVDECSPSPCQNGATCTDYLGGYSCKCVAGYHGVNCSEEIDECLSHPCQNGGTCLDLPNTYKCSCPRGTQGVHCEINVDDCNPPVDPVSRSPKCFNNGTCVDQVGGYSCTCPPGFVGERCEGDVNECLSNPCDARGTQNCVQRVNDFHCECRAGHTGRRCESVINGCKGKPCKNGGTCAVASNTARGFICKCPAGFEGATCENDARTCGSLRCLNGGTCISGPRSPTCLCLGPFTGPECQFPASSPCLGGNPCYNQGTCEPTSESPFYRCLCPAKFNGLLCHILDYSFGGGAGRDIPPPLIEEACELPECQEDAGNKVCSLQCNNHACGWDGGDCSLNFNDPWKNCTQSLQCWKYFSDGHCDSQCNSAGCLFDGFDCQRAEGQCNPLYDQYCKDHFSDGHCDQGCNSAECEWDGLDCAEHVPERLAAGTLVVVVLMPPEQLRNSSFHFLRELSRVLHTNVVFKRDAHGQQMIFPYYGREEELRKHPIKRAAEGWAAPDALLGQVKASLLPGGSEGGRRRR
# Sequence of hNotch1 (P46531 1665-1756 limits assumed): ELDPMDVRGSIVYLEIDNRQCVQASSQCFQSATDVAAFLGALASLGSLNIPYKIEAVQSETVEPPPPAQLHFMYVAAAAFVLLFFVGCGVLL
molecule,measurement,setting,value
B1,increase in Notch1 activation relative to controls,"[1]; co-culture with HEK293T expressing ligand, ratio 1:1",15 fold
same,increase in Notch1 activation relative to controls,"[1]; ligand-coated streptavidin magnetic beads, ratio 1:20 reporter cells:beads",21 fold
same,increase in Notch1 activation relative to controls,"[1]; non-specific adsorption, 0.1 ng/mm^2",23 fold
same,increase in Notch1 activation relative to controls,"[1]; oriented coupling on streptavidin plates, 10 nM",50 fold
same,Notch1 activation relative to controls,"[1]; yeast-displayed, ratio 1:10 reporter:yeast",did not induce a significant change
same,speed of Notch1 activation compared to WT DLL4,[2],more rapidly
same,IC50,[3],400 nM
